The target of data set [1] is His-Halo-XcpS62-396 (not stated | P. aeruginosa) (UniProt Q00513). The data set can be described thus: negative-stain electron microscopy structure.
Data set [2] deals with the molecule itself. Kind of data set: SEC-MALS. (In general: In gel filtration, larger molecules generally elute earlier.)

As to “His-Halo-XcpS62-396 (from UniProt Q00513 62-396) (domain or fragment)”, the stoichiometry N in data set [1] stood at 2.

B1: Strep-mCherry-XcpS56-396 (domain or fragment, P. aeruginosa, UniProt Q00513 56-396, looked up)
chain: RLTFARGLSARDLALVTRQLATLVQAALPIEEALRAAAAQSTSQRIQSMLLAVRAKVLEGHSLAGSLREFPTAFPELYRATVAAGEHAGHLGPVLEQLADYTEQRQQSRQKIQLALLYPVILMVASLAIVGFLLGYVVPDVVRVFIDSGQTLPLLTRVLIGVSDWVKAWGALAFVAAIGGVIGFRYALRKDAFRERWHGFLLRVPLVGRLVRSTDTARFASTLAILTRSGVPLVEALAIAAEVIANRIIRNEVVKAAQKVREGASLTRSLEATGQFPPMMLHMIASGERSGELDQMLARTARNQENDLAAQIGLMVGLFEPFMLIFMGAVVLVIVLAILLP
In the case of B1, the “stoichiometry N” value in data set [2] is 2.

What is called stoichiometry N is the number of molecules, sites or subunits per partner or assembly.

Source of the values: paper doi:10.1101/435982 (bioRxiv, 2018).
